Values quoted from earlier work, collected in patent US20250186538A1, “BIVALIRUDIN COMPOUNDS” (The General Hospital Corporation, priority 2022, published 2025).

Conditions: in vivo

D-Phe-Pro-Arg-Pro-Gly-Gly-Gly-Gly-Asn-Gly-Asp-Phe-Glu-Glu-Ile-Pro-Glu-Glu-Tyr-Leu [bival]
Half-life: about 20 min
